# Reference: patent publication US20230357429A1 (JANUX THERAPEUTICS, published 2023)
# Read-outs that look alike come from different tables or passages of the source. Where no end group is shown, it is not given here.
# T1: Peptide-72 (cysteine pairing not given here; also: biotinylated, site not given here)
# T1 construct: mask peptide for the CD3 scFv
# T1 peptide: AYCGPEFDESVGCM
# T2: Peptide-66 (cysteine pairing not given here; also: biotinylated, site not given here)
# T2 construct: mask peptide for the CD3 scFv
# T2 peptide: GSQCLGPEWEVCPY
# T3: Peptide-74 (cysteine pairing not given here; also: biotinylated, site not given here)
# T3 construct: mask peptide for the CD3 scFv
# T3 peptide: ASQCLGPEWEVCPY
# T4: Peptide-69 (cysteine pairing not given here; also: biotinylated, site not given here)
# T4 construct: mask peptide for the CD3 scFv
# T4 peptide: SECLVDLQSDPCYW
# T5: Peptide-71 (cysteine pairing not given here; also: biotinylated, site not given here)
# T5 construct: mask peptide for the CD3 scFv
# T5 peptide: VDCGPDGDESILCY
# T6: Peptide-67 (cysteine pairing not given here; also: biotinylated, site not given here)
# T6 construct: mask peptide for the CD3 scFv
# T6 peptide: VYCGPEFDESVGCM
# T7: Peptide-75 (cysteine pairing not given here; also: biotinylated, site not given here)
# T7 construct: mask peptide for the CD3 scFv
# T7 peptide: GSACLGPEWEVCPY
# T8: Peptide-68 (cysteine pairing not given here; also: biotinylated, site not given here)
# T8 construct: mask peptide for the CD3 scFv
# T8 peptide: DWCWYSPDNDGLCD
# T9: Peptide-76 (cysteine pairing not given here; also: biotinylated, site not given here)
# T9 construct: mask peptide for the CD3 scFv
# T9 peptide: YLCGPDADETLACY
# T10: Peptide-70 (cysteine pairing not given here; also: biotinylated, site not given here)
# T10 construct: mask peptide for the CD3 scFv
# T10 peptide: YLCGPDGDETLACY
# T11: Peptide-77 (cysteine pairing not given here; also: biotinylated, site not given here)
# T11 construct: mask peptide for the CD3 scFv
# T11 peptide: YLCGPDTDETLACY
# B1: TCE-20 (anti-CD3 scFv S110A; anti-TROP2 wt) (bispecific antibody)
# light: DIQLTQSPSSLSASVGDRVSITCKASQDVSIAVAWYQQKPGKAPKLLIYSASYRYTGVPDRFSGSGSGTDFTLTISSLQPEDFAVYYCQQHYITPLTFGAGTKVEIKRTVAAPSVFIFPPSDEQLKSGTASVVCLLNNFYPREAKVQWKVDNALQSGNSQESVTEQDSKDSTYSLSSTLTLSKADYEKHKVYACEVTHQGLSSPVTKSFNRGEC
# heavy: not shown
# notes: scFv on the Fab heavy chain; also called TCE-20 (S110A)
# B2: TCE-38 (anti-CD3 scFv F240A; anti-TROP2 F108A) (bispecific antibody)
# light: DIQLTQSPSSLSASVGDRVSITCKASQDVSIAVAWYQQKPGKAPKLLIYSASYRYTGVPDRFSGSGSGTDFTLTISSLQPEDFAVYYCQQHYITPLTFGAGTKVEIKRTVAAPSVFIFPPSDEQLKSGTASVVCLLNNFYPREAKVQWKVDNALQSGNSQESVTEQDSKDSTYSLSSTLTLSKADYEKHKVYACEVTHQGLSSPVTKSFNRGEC
# heavy: not shown
# notes: scFv on the Fab heavy chain
# B3: Peptide-73 (peptide)
# peptide: VYCGPEFDESVGCA
# modifications: cysteine pairing not given here; also: biotinylated, site not given here
# notes: mask peptide for the CD3 scFv
# Columns and labels:
# Peptide-72 = target: T1, Peptide-72; assay: ELISA, TCE on captured biotin-peptide
# Peptide-73 [1] = target: B3; assay: ELISA, TCE on captured biotin-peptide
# Peptide-66 = target: T2, Peptide-66; assay: ELISA, TCE on captured biotin-peptide
# Peptide-74 = target: T3, Peptide-74; assay: ELISA, TCE on captured biotin-peptide
# Peptide-69 = target: T4, Peptide-69; assay: ELISA, TCE on captured biotin-peptide
# Peptide-71 = target: T5, Peptide-71; assay: ELISA, TCE on captured biotin-peptide
# Peptide-67 = target: T6, Peptide-67; assay: ELISA, TCE on captured biotin-peptide
# Peptide-75 = target: T7, Peptide-75; assay: ELISA, TCE on captured biotin-peptide
# Peptide-68 = target: T8, Peptide-68; assay: ELISA, TCE on captured biotin-peptide
# [2] = target: T12, CD3 (biotinylated CD3 antigen) (human, UniProt P07766 23-126, limits assumed, biotinylated (site not stated)); assay: ELISA, TCE on captured biotin-CD3
# T12 construct: also called CD3ε; human CD3
# Peptide-76 = target: T9, Peptide-76; assay: ELISA, TCE on captured biotin-peptide
# Peptide-73 [3] = target: B3; assay: ELISA, TCE on captured biotin-peptide
# Peptide-70 = target: T10, Peptide-70; assay: ELISA, TCE on captured biotin-peptide
# Peptide-77 = target: T11, Peptide-77; assay: ELISA, TCE on captured biotin-peptide
# [4] = target: B1; assay: competition ELISA, TCE on captured CD3; Table 40 peptide panel (FIGS. 91-102), limit >100 µM
# [5] = target: T13, TCE-10 (anti-CD3 scFv R100A; anti-TROP2 wt); assay: as above
# T13 construct: scFv on the Fab heavy chain; also called TCE-10 (R100A)
# [6] = target: B1; assay: competition ELISA (IC50 above limit); Table 42 Peptide-73 series (FIGS. 103A-103C), limit >3 µM
# [7] = target: T13, TCE-10 (anti-CD3 scFv R100A; anti-TROP2 …); assay: as above
# [8] = target: T14, TCE-14 (anti-CD3 scFv F104A; anti-TROP2 wt); assay: competition ELISA, TCE on captured CD3
# T14 construct: scFv on the Fab heavy chain; also called TCE-14 (F104A)
# [9] = target: T15, TCE-11 (anti-CD3 scFv H101A; anti-TROP2 wt); assay: competition ELISA, TCE on captured CD3
# T15 construct: scFv on the Fab heavy chain; also called TCE-11 (H101A)
# [10] = target: T16, TCE-13 (anti-CD3 scFv N103A; anti-TROP2 wt); assay: competition ELISA, TCE on captured CD3
# T16 construct: scFv on the Fab heavy chain; also called TCE-13 (N103A)
# [11] = target: T17, TCE-22 (anti-CD3 scFv W112A; anti-TROP2 wt); assay: competition ELISA, TCE on captured CD3; Table 41 run, peptide series with ceiling >100 µM
# T17 construct: scFv on the Fab heavy chain; also called TCE-22 (W112A)
# [12] = target: T18, TCE-31 (anti-CD3 scFv W238A; anti-TROP2 wt); assay: as above
# T18 construct: scFv on the Fab heavy chain; also called TCE-31 (W238A)
# [13] = target: T19, TCE-39 (anti-CD3 scFv P41S, A49G, N87S, L150F, T151S, G163R, P175A, K181T, T200V, A202D, L208I, G211N, L217I, …); assay: competition ELISA, TCE on captured CD3
# T19 construct: scFv on the Fab heavy chain
# [14] = target: T20, TCE-36 (anti-CD3 scFv H101A; anti-TROP2 F108A); assay: competition ELISA, TCE on captured CD3
# T20 construct: scFv on the Fab heavy chain
# [15] = target: B2; assay: competition ELISA, TCE on captured CD3
# [16] = target: T21, TCE-37 (anti-CD3 scFv F104A; anti-TROP2 F108A); assay: competition ELISA, TCE on captured CD3
# T21 construct: scFv on the Fab heavy chain
# [17] = target: T22, TCE-7 (anti-CD3 scFv wt; anti-TROP2 F108A); assay: competition ELISA, TCE on captured CD3
# T22 construct: scFv on the Fab heavy chain
# [18] = target: B1; assay: competition ELISA, TCE on captured CD3
# [19] = target: T23, TCE-15 (anti-CD3 scFv G105A; anti-TROP2 wt); assay: competition ELISA, TCE on captured CD3
# T23 construct: scFv on the Fab heavy chain
# [20] = target: T24, TCE-32 (anti-CD3 scFv V239A; anti-TROP2 wt); assay: competition ELISA, TCE on captured CD3
# T24 construct: scFv on the Fab heavy chain
# [21] = target: T25, TCE-19 (anti-CD3 scFv I109A; anti-TROP2 wt); assay: competition ELISA, TCE on captured CD3
# T25 construct: scFv on the Fab heavy chain
# [22] = target: T26, TCE-25 (anti-CD3 scFv L232A; anti-TROP2 wt); assay: competition ELISA, TCE on captured CD3
# T26 construct: scFv on the Fab heavy chain
# [23] = target: T27, TCE-33 (anti-CD3 scFv F240A; anti-TROP2 wt); assay: competition ELISA, TCE on captured CD3
# T27 construct: scFv on the Fab heavy chain; also called TCE-33 (F240A)
# [24] = target: T28, TCE-9 (anti-CD3 scFv V99A; anti-TROP2 wt); assay: competition ELISA, TCE on captured CD3
# T28 construct: scFv on the Fab heavy chain
# [25] = target: T29, TCE-17 (anti-CD3 scFv S107A; anti-TROP2 wt); assay: competition ELISA, TCE on captured CD3
# T29 construct: scFv on the Fab heavy chain
# [26] = target: T30, TCE-27 (anti-CD3 scFv Y234A; anti-TROP2 wt); assay: competition ELISA, TCE on captured CD3
# T30 construct: scFv on the Fab heavy chain
# [27] = target: T31, TCE-18 (anti-CD3 scFv Y108A; anti-TROP2 wt); assay: competition ELISA, TCE on captured CD3
# T31 construct: scFv on the Fab heavy chain
# [28] = target: T32, TCE-12 (anti-CD3 scFv G102A; anti-TROP2 wt); assay: competition ELISA, TCE on captured CD3
# T32 construct: scFv on the Fab heavy chain
# [29] = target: T33, TCE-1 (anti-CD3 scFv wt; anti-TROP2 Fab wt); assay: competition ELISA, TCE on captured CD3
# T33 construct: anti-CD3 scFv fused to the N-terminus of the anti-TROP2 Fab heavy chain; also called TCE-1 (wt)
# [30] = target: T34, TCE-29 (anti-CD3 scFv N236A; anti-TROP2 wt); assay: competition ELISA, TCE on captured CD3
# T34 construct: scFv on the Fab heavy chain
# [31] = target: T14, TCE-14 (anti-CD3 scFv F104A; anti-TROP2 …); assay: competition ELISA, TCE on captured CD3; remark: listed apart in the source
# [32] = target: T35, TCE-24 (anti-CD3 scFv V231A; anti-TROP2 wt); assay: competition ELISA, TCE on captured CD3
# T35 construct: scFv on the Fab heavy chain
# [33] = target: T15, TCE-11 (anti-CD3 scFv H101A; anti-TROP2 …); assay: competition ELISA, TCE on captured CD3; remark: listed apart in the source
# [34] = target: T16, TCE-13 (anti-CD3 scFv N103A; anti-TROP2 …); assay: competition ELISA, TCE on captured CD3; remark: listed apart in the source
# [35] = target: T36, TCE-28 (anti-CD3 scFv S235A; anti-TROP2 wt); assay: competition ELISA, TCE on captured CD3
# T36 construct: scFv on the Fab heavy chain
# [36] = target: T13, TCE-10 (anti-CD3 scFv R100A; anti-TROP2 …); assay: competition ELISA, TCE on captured CD3
# [37] = target: T37, TCE-16 (anti-CD3 scFv N106A; anti-TROP2 wt); assay: competition ELISA, TCE on captured CD3
# T37 construct: scFv on the Fab heavy chain
# [38] = target: T38, TCE-30 (anti-CD3 scFv R237A; anti-TROP2 wt); assay: competition ELISA, TCE on captured CD3
# T38 construct: scFv on the Fab heavy chain
# [39] = target: T27, TCE-33 (anti-CD3 scFv F240A; anti-TROP2 …); assay: competition ELISA, TCE on captured CD3; remark: listed apart in the source
binder,measurement,setting,value
B1,EC50,Peptide-72,0.76 nM
same,EC50,Peptide-73 [1],0.83 nM
same,EC50,Peptide-66,3.65 nM
same,EC50,Peptide-74,3.46 nM
same,EC50,Peptide-69,0.95 nM
same,EC50,Peptide-71,1.92 nM
same,EC50,Peptide-67,0.66 nM
same,EC50,Peptide-75,3.82 nM
same,EC50,Peptide-68,0.16 nM
B2,EC50,[2],0.95 nM
same,EC50,Peptide-76,222 nM
same,EC50,Peptide-73 [3],8.87 nM
same,EC50,Peptide-70,0.62 nM
same,EC50,Peptide-77,336 nM
B3,IC50,[4],2200 nM
same,IC50,[5],16800 nM
same,IC50,[6],3000 nM
same,IC50,[7],3000 nM
same,IC50,[8],200 nM
same,IC50,[9],2930 nM
same,IC50,[10],4070 nM
same,IC50,[11],39100 nM
same,IC50,[12],25900 nM
same,IC50,[13],40 nM
same,IC50,[14],1630 nM
same,IC50,[15],4620 nM
same,IC50,[16],10 nM
same,IC50,[17],60 nM
same,IC50,[18],> 3000 nM
same,IC50,[19],310 nM
same,IC50,[20],60 nM
same,IC50,[21],420 nM
same,IC50,[22],650 nM
same,IC50,[23],1900 nM
same,IC50,[24],160 nM
same,IC50,[25],100 nM
same,IC50,[26],620 nM
same,IC50,[27],110 nM
same,IC50,[28],230 nM
same,IC50,[29],140 nM
same,IC50,[30],230 nM
same,IC50,[31],70 nM
same,IC50,[32],230 nM
same,IC50,[33],1220 nM
same,IC50,[34],820 nM
same,IC50,[35],100 nM
same,IC50,[36],> 3000 nM
same,IC50,[37],50 nM
same,IC50,[38],140 nM
same,IC50,[39],3020 nM
